From US10065993B2, “Peptides and peptide/active compound conjugates for renal targeting” (MERCK PATENT GMBH, priority 2013, dated 2018)
Ends that are not written are not given here. Peptide text beside a SMILES is read from it. * marks the point of attachment. ξ: configuration not given here. Lipoyl(6ξ) = O=C(CCCCC1CCSS1)*

Tests used:
kidney = experiment: Scintigraphic / SPECT distribution of radiolabelled peptides and conjugates (kidney selectivity); set-up: species or system NMRI mice; conditions: mouse, in vivo; for kidney specificity: iv
Protocol: The labelling is carried out using a 1 mM stock solution of the peptide to be labelled in water (dimethyl sulfoxide (DMSO) may have to be added for better solubility). Tyrosine-containing peptides are labelled with iodine-123, iodine-125 or iodine-131 (Perkin-Elmer, Waltham, Mass., USA) by means of the chloramine-T method. To this end, 20 μl of phosphate buffer (0.25 M, pH 7.4) are added to 10 μl of the stock solution, and the desired amount of radioactive iodine is added. For the labelling, 5 μl of chloramine-T (2 mg/ml of H2O) are added. The reaction is carried out for 30 seconds and is subsequently terminated using 10 μl of a saturated methionine solution. In order to separate off free iodine and by-products, the reaction mixture is purified by means of semipreparative HPLC (Chromolith RP-18e, 100×4.6 mm). The separation is carried out using a linear gradient from 0.1% of TFA in water to 0.1% of TFA in acetonitrile in 10 minutes (flow rate: 2 ml/min, UV absorption at 214 nm, γ detection). The solvent is subsequently removed in a rotary evaporator, and the labelled peptide is taken up in the desired buffer.
The tyrosine-containing peptides are labelled with ^125iodine by means of the chloramine-T method. For the labelling, a 1 mM stock solution in water is used. If necessary, DMSO is added for better solubility. To this end, 20 μl of phosphate buffer (0.25 M, pH 7.4) are added to 10 μl of the stock solution, and the desired amount of radioactive iodine is added. The labelling is carried out using 5 μl of chloramine-T (2 mg/ml of H2O). The reaction is carried out for 30 seconds and is subsequently terminated using 10 μl of a saturated methionine solution.
After the labelling, the peptide is purified by means of semi-preparative HPLC in order to remove the excess free iodine and other by-products. 100 μl of the 0.1 mM stock solution are in each case used for the injection. Before the injection, the radioactivity is recorded by means of a Geiger counter. […]

[1] = tested on: kidneys (i.e. proximal tubule cells, PTCs); conditions: in vivo; cited from earlier work

| Compound | kidney specificity (kidney) | also measured |
| --- | --- | --- |
| diacetylcaffeic acid (KKEEE)3K: diacetylcaffeic acid bonded at the N terminal of y(KKEEE)3K (KKEEEKKEEEKKEEEK-NH2; not fully specified (N-terminus)) | retain their high kidney specificity |  |
| (APASLYN)2: dimer of literature kidney-selective peptide APASLYN (Denby et al.), SEQ ID NO: 90 (APASLYNAPASLYN; not fully specified) |  | kidney selectivity (kidney): already inadequate |
| NCCCCC(NC(=O)C(CCC(=O)O)NC(=O)C(CCC(=O)O)NC(=O)C(CCC(=O)O)NC(=O)C(CCCCNC(=O)CCCCC1CCSS1)NC(=O)C(CCCCN)NC(=O)C(CCCCN)NC(=O)C(CCC(=O)O)NC(=O)C(CCC(=O)O)NC(=O)C(CCC(=O)O)NC(=O)C(CCCCNC(=O)CCCCC1CCSS1)NC(=O)C(CCCCN)NC(=O)C(CCCCN)NC(=O)C(CCC(=O)O)NC(=O)C(CCC(=O)O)NC(=O)C(CCC(=O)O)NC(=O)C(CCCCNC(=O)CCCCC1CCSS1)NC(=O)C(CCCCN)NC(=O)C(CCCCN)NC(=O)C(N)Cc1ccc(O)cc1)C(N)=O (stereo not shown) [y(KKKε(lipoic acid)EEE)3K] (H-YKKK(Lipoyl(6ξ))EEEKKK(Lipoyl(6ξ))EEEKKK(Lipoyl(6ξ))EEEK-NH2; configuration not given here) | high kidney specificity |  |
| C[C@@H](O)[C@@H]1NC(=O)[C@H](CCCCN)NC(=O)[C@@H](Cc2c[nH]c3ccccc23)NC(=O)[C@H](Cc2ccc(O)cc2)NC(=O)[C@@H](NC(=O)[C@@H](Cc2ccccc2)NC(=O)CN2CCN(CC(=O)O)CCN(CC(=O)O)CCN(CC(=O)O)CC2)CSSC[C@@H](C(=O)N[C@H](CO)[C@@H](C)O)NC1=O [DOTATOC] |  | uptake by the kidneys [1]: about 20% |
